# Reference: US20230295635, “DNA APTAMERS FOR EOSINOPHIL PEROXIDASE DETECTION” (McMaster University, published 2023)
# Columns and labels:
# [1] = biological target: T1, Eosinophil peroxidase (EPX) (UniProt P11678;P11678 P11678:140-250,P11678:251-715); test: EMSA; value only in figure; weaker than EAP1-05; 1x SB pH 9; conditions: tags: Cedarlane #342-60-0.1; untagged commercial protein; label: fluorescent (FAM)
# [2] = biological target: T1, Eosinophil peroxidase (EPX); test: EMSA; 3 nM aptamer, 5 nM EPX; small positive impact of middle deletion; conditions: tags: Cedarlane #342-60-0.1; untagged commercial protein; label: 5'-FAM
# Description: Next, EAP1-05 was subjected to truncation and deletion experiments to shorten the aptamer and improve its binding ability. The aptamer was truncated by removing various DNA segments (FIG. 2A), and the fraction of aptamer bound to EPX was assessed by EMSA using 3 nM of aptamer and a single EPX concentration of 5 nM and calculating the decrease in free aptamer fluorescence in EMSA gels.
# [3] = biological target: T1, Eosinophil peroxidase (EPX); test: FP; 0.5x SB, room temperature; conditions: tags: Cedarlane #342-60-0.1; untagged commercial protein; label: 5'-FAM; 3' stem loop
# [4] = biological target: T1, Eosinophil peroxidase (EPX); test: FP; PBS pH 7.4, room temperature; conditions: tags: Cedarlane #342-60-0.1, untagged commercial protein, label: 5'-FAM
# [5] = biological target: T1, Eosinophil peroxidase (EPX); test: EMSA; 1x SB (50 mM Tris, 1 M NaCl, 5 mM MgCl2, 2 mM KCl, pH 9), poly(dI-dC); from loss of free aptamer band; conditions: tags: Cedarlane #342-60-0.1; untagged commercial protein; label: 5'-FAM; 3' stem loop
# [6] = biological target: Bovine serum albumin (BSA) (Bos taurus, UniProt P02769 P02769:25-607); test: pulldown; HB; no TMB signal (BSA has no peroxidase activity); conditions: label: 5'-biotin
# Description: (§1) EPX pulldown assay: Biotinylated EAP1-05T3 was immobilized on streptavidin-coated agarose beads as follows: 200 µL of streptavidin-coated agarose slurry was transferred into a 1.5 mL Eppendorf tube and washed with 500 µL of 1x HB (50 mM HEPES, 300 mM NaCl, 15 mM MgCl2, 0.01% Tween20, pH 7.5). 1 nmole of biotinylated EAP1-05T3 was added to this slurry and rotated gently for 1 h to bind the aptamers with the beads. The beads were washed 5x with 500 µL of 1x HB each time and finally suspended in 1000 µL of 1x HB and stored at 4° C. until use. 50 µL of this bead slurry was used for each pull-down experiment.
# Specificity test: 50 µL of aptamer-conjugated beads from above were aliquoted in each tube and labelled for each experiment: Buffer, EPX, MPO, LPO, TPO and BSA respectively. 1 µM stock of each of protein was made in 1x HB. Next, 1.0 µL of each protein was added to their respected tube and incubated at room temperature for 30 minutes with occasional pipetting for homogeneous binding. Only buffer was added in the control experiment tube that was labelled as buffer. Then the beads were sedimented by brief centrifugation using a benchtop centrifuge and washed 3× using 300 µL 1x HB. Next, the beads were resuspended in 25 µL HB. […] This yellow solution was immediately transferred into 96 well plate and the OD was measured at 450 nm using Tecan plate reader. […]
# [7] = biological target: T1, Eosinophil peroxidase (EPX); test: pulldown; HB (50 mM HEPES, 300 mM NaCl, 15 mM MgCl2, pH 7.5), TMB signal; LoD 1 nM in buffer, 1.25 nM in sputum; conditions: tags: Cedarlane #342-60-0.1; untagged commercial protein; label: 5'-biotin
# Description: as §1
# Sensitivity test in buffer: EPX stocks of different concentrations (10.0, 5.0, 2.5, 1.25, 0.625, 0.312, 0.156, 0.078, 0.039 and 0.019 µM) were made in 1x HB. Similar to specificity test, 50 µL of aptamer conjugated beads slurry was transferred in each fresh Eppendorf tube (3 tubes for each concentration for triplicate experiments). 1.0 µL of each protein was added to their respected tube and incubated at room temperature for 30 minutes with occasional pipetting for homogeneous binding. Only buffer was added in the control experiment tube that was labelled as buffer. […] This yellow solution was immediately transferred into 96 well plate and the OD was measured at 450 nm using a Tecan plate reader. […]
# Myeloperoxidase (MPO) = Myeloperoxidase (MPO) (UniProt P05164;P05164 P05164:165-273,P05164:279-745); test: pulldown; HB, 1 uM protein; no TMB signal; conditions: tags: Cedarlane #426-10-0.1; untagged commercial protein; chain copies: 2; label: 5'-biotin
# Lactoperoxidase (LPO) = Lactoperoxidase (LPO) (UniProt P80025 P80025:101-712); test: pulldown; HB, 1 uM protein; no TMB signal
# T1 sequence (P11678 140-250, chain 1 of 2): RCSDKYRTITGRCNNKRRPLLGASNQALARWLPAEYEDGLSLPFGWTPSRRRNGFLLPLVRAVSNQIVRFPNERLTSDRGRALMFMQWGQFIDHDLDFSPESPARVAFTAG
# T1 sequence (P11678 251-715, chain 2 of 2): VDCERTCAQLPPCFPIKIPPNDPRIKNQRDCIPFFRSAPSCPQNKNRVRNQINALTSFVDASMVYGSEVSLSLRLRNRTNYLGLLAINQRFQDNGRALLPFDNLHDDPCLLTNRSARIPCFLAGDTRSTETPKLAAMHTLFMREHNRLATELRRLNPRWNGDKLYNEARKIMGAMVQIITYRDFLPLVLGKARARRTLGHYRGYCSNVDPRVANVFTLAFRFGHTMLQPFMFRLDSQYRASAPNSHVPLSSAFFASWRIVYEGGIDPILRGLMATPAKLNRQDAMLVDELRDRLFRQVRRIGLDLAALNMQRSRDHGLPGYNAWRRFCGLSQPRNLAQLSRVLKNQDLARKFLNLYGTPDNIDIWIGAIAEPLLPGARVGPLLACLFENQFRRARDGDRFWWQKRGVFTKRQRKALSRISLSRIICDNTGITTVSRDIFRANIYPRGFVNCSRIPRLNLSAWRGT
# Sequence of Myeloperoxidase (MPO) (P05164 165-273, chain 1 of 2): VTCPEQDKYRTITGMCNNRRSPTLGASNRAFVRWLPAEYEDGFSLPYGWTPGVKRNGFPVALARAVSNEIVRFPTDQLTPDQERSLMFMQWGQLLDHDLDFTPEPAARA
# Sequence of Myeloperoxidase (MPO) (P05164 279-745, chain 2 of 2): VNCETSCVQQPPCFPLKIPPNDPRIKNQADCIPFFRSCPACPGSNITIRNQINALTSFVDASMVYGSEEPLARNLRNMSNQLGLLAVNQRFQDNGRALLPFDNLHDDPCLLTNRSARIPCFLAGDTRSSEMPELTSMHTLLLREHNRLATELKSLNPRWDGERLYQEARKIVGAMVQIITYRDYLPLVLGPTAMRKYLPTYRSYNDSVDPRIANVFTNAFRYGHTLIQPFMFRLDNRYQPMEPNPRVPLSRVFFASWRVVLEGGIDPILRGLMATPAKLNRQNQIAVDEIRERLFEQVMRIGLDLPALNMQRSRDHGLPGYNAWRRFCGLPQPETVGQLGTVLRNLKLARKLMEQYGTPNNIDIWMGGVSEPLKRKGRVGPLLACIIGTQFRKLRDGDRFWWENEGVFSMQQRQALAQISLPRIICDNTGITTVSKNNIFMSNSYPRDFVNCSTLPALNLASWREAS
# Sequence of Bovine serum albumin (BSA) (P02769 25-607, one chain of several): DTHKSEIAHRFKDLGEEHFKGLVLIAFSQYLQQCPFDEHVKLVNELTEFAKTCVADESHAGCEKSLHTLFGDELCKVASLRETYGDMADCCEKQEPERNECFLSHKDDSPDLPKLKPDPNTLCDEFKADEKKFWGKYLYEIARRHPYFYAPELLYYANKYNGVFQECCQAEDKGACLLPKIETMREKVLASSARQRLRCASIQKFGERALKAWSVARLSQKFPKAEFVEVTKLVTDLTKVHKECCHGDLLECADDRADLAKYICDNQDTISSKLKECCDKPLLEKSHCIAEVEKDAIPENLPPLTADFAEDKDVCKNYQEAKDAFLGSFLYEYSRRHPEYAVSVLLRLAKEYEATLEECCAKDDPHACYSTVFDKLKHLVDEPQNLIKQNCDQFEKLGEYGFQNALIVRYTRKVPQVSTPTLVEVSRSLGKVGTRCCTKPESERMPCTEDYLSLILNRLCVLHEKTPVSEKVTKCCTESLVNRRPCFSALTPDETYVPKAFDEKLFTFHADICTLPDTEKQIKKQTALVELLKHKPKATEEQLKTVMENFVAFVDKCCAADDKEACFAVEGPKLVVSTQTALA
Binder,binding result [1],further results
EAP2-40 (ssDNA) DNA: ATGCCATCCTACCAACCAGGGGGCGCGGGAGGGGGCCTGACGTCGAGGGGGTTGGGGAGCTCTGAACTGG,binds,–
ATGCCATCCTACCAATAGGGAGGGGGCTAGGGGGGAGCTCTGAACTCG (ssDNA) [EAP1-05T2],–,binding result [2]: binds
EAP2-18 (ssDNA) DNA: ATGCCATCCTACCAACATGGGGATATCCGGCGGGGGCATCAGGGGGGAGTGCGGGTGAGCTCTGAACTGG,binds,–
EAP1-05 (ssDNA) DNA: ATGCCATCCTACCAACCAGGGGGACAGTGCAAAGGGGTAGGGAGGGGGCTAGGGGGGAGCTCTGAACTGG,–,Kd [3]: 36.6 nM; Kd ([4]; 3' stem loop): 4.3 nM; Kd [5]: 9.2 nM
EAP1-05T3BT (ssDNA) DNA: TTTTTTTTTTATGCCATCCTACCAACCAGGGGGACAGTGCAAAGGGAGCTCTGAACTCG,–,binding result [6]: no binding; binding result [7]: binds; binding result (Myeloperoxidase (MPO)): no binding; binding result (Lactoperoxidase (LPO)): no binding
EAP1-15 (ssDNA) DNA: ATGCCATCCTACCAACCGGGGGAGCAAGGTGTAGGGGTAGGGGGCCATGCGAGGGGGAGCTCTGAACTGG,binds,–
EAP2-01 (ssDNA) DNA: ATGCCATCCTACCAACCGCGGGAGGAGACTGGTGTAGGGGGCATGGGATGGCCTGGGAGCTCTGAACTGG,binds,–
ATGCCATCCTACCAACCAGGGGGACAGTGCAAAGGGAGCTCTGAACTCG (ssDNA) [EAP1-05T3],–,Kd [4]: 4.8 nM
EAP2-09 (ssDNA) DNA: ATGCCATCCTACCAACACGACCGGTGTAGAGGGGGGTATACGGAATGGGGGTTGTGGAGCTCTGAACTGG,binds,–
EAP2-10 (ssDNA) DNA: ATGCCATCCTACCAACAGGGAGGGGGCGGTTAGGGAATGGTGGTCCGGGCGGGGTAGAGCTCTGAACTGG,binds,–
EAP1-08 (ssDNA) DNA: ATGCCATCCTACCAACCAGTTGCCGGTGGGGTGACCCGGTGGGGGAGGGTGTGGGGGAGCTCTGAACTGG,binds,–
EAP1-20 (ssDNA) DNA: ATGCCATCCTACCAACAGCAGCGGGCGGGGGCCAGTGGGGGATGTAGCCGGGGGTGGAGCTCTGAACTGG,binds,–
EAP1-01 (ssDNA) DNA: ATGCCATCCTACCAACCACGGGGATCGGGTGGGGGCTAGGCGGCGTGTGCACGGGGGAGCTCTGAACTGG,binds,–
